This is an account of results in US20070141570A1.

The assay addresses RIa isoform of PKA (type I alpha regulatory subunit of cAMP-dependent protein kinase). Kind of assay: binding in vitro, method not described.

For the substance “D-AKAP2 (AKAP10) Ile variant, isoleucine at position 646 of SEQ ID NO:2 (from UniProt O43572 507-662)”, the fold weaker binding than the Val variant came out at 3 fold.
